Laboratory results reported in patent US20120191435A1 (SHANGHAI NATIONAL ENGINEERING RESEARCH CENTER OF ANTIBODY …, published 2012).

T1: biotin labeled antigen peptide (a fragment of the CD20 extracellular domain) (human, UniProt P11836 163-187, limits assumed, biotin labeled (position not given))
T1 construct: domain: a fragment of the CD20 extracellular domain; also called short peptide CD20; CD20 antigen
T1 peptide (looked up): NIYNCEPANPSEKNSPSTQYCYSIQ


Columns and labels:
[1] = biological target: T1, biotin labeled antigen peptide (a …); experiment: Biacore SPR, biotin-CD20 peptide on SA chip, antibody in flow
Description: (§1) A SA chip was balanced in 50 μl/min of PBS solution for 30 minutes at 25° C. and then activated three times with activation solution of 1M NaCl and 50 mM NaOH, for 1 minute per time. […] Then the chip was balanced in 50 μl/min of PBS solution for 10 minutes. The balanced SA chip was blocked with 0.04% of biotin solution. The antibody was diluted to five concentrations by double dilution. The samples were loaded at the flow rate of 50 μl/min for 75 seconds and dissociated with PBS solution for 10 minutes.

[2] = biological target: T1, biotin labeled antigen peptide (a …); experiment: Biacore SPR, biotin-CD20 peptide on SA chip; ratio against un-mutated C2B8 (WT)
Description: as §1

[3] = biological target: T1, biotin labeled antigen peptide (a …); experiment: Biacore SPR, biotin-CD20 peptide on SA chip; ratio against commercially available rituximab
Description: as §1

| Binder | Kd [1] [nM] | KdWT/Kdmutant [2] | KdRitu/Kdmutant [3] |
| --- | --- | --- | --- |
| anti-CD20 chimeric antibody Rituximab (C2B8), un-mutated, expressed in CHO-K1 cells in this filing (antibody, human IgG1, kappa, V domains shown, Whole chimeric IgG1 kappa; also called WT; un-mutated C2B8) VH: QVQLQQPGAELVKPGASVKMSCKASGYTFTSYNMHWVKQTPGRGLEWIGAIYPGNGDTSYNQKFKGKATLTADKSSSTAYMQLSSLTSEDSAVYYCARSTYYGGDWYFNVWGAGTTVTVSA VL: QIVLSQSPAILSASPGEKVTMTCRASSSVSYIHWFQQKPGSSPKPWIYATSNLASGVPVRFSGSGSGTSYSLTISRVEAEDAATYYCQQWTSNPPTFGGGTKLEIKR | 44.1 |  |  |
| C2B8 antibody mutant Rmut4 (H102YR) (antibody, V domains shown) VH: QVQLQQPGAELVKPGASVKMSCKASGYTFTSYNMHWVKQTPGRGLEWIGAIYPGNGDTSYNQKFKGKATLTADKSSSTAYMQLSSLTSEDSAVYYCARSTYRGGDWYFNVWGAGTTVTVSA VL: QIVLSQSPAILSASPGEKVTMTCRASSSVSYIHWFQQKPGSSPKPWIYATSNLASGVPVRFSGSGSGTSYSLTISRVEAEDAATYYCQQWTSNPPTFGGGTKLEIK |  | 1.75 | 2.23 |
| C2B8 antibody mutant Rmut6 (H102YT) (antibody, V domains shown) VH: QVQLQQPGAELVKPGASVKMSCKASGYTFTSYNMHWVKQTPGRGLEWIGAIYPGNGDTSYNQKFKGKATLTADKSSSTAYMQLSSLTSEDSAVYYCARSTYTGGDWYFNVWGAGTTVTVSA VL: QIVLSQSPAILSASPGEKVTMTCRASSSVSYIHWFQQKPGSSPKPWIYATSNLASGVPVRFSGSGSGTSYSLTISRVEAEDAATYYCQQWTSNPPTFGGGTKLEIK |  | 1.84 | 2.34 |
| C2B8 antibody mutant Rmut7 (H102YK) (antibody, V domains shown) VH: QVQLQQPGAELVKPGASVKMSCKASGYTFTSYNMHWVKQTPGRGLEWIGAIYPGNGDTSYNQKFKGKATLTADKSSSTAYMQLSSLTSEDSAVYYCARSTYKGGDWYFNVWGAGTTVTVSA VL: QIVLSQSPAILSASPGEKVTMTCRASSSVSYIHWFQQKPGSSPKPWIYATSNLASGVPVRFSGSGSGTSYSLTISRVEAEDAATYYCQQWTSNPPTFGGGTKLEIK |  | 3.96 | 5.04 |
| C2B8 antibody mutant Rmut3 (H57DE) (antibody, V domains shown) VH: QVQLQQPGAELVKPGASVKMSCKASGYTFTSYNMHWVKQTPGRGLEWIGAIYPGNGETSYNQKFKGKATLTADKSSSTAYMQLSSLTSEDSAVYYCARSTYYGGDWYFNVWGAGTTVTVSA VL: QIVLSQSPAILSASPGEKVTMTCRASSSVSYIHWFQQKPGSSPKPWIYATSNLASGVPVRFSGSGSGTSYSLTISRVEAEDAATYYCQQWTSNPPTFGGGTKLEIK |  | 6.08 | 7.73 |
| C2B8 antibody mutant Rmut5 (H102YS) (antibody, V domains shown) VH: QVQLQQPGAELVKPGASVKMSCKASGYTFTSYNMHWVKQTPGRGLEWIGAIYPGNGDTSYNQKFKGKATLTADKSSSTAYMQLSSLTSEDSAVYYCARSTYSGGDWYFNVWGAGTTVTVSA VL: QIVLSQSPAILSASPGEKVTMTCRASSSVSYIHWFQQKPGSSPKPWIYATSNLASGVPVRFSGSGSGTSYSLTISRVEAEDAATYYCQQWTSNPPTFGGGTKLEIK |  | 1.85 | 2.35 |
| C2B8 antibody mutant Rmut2 (H55NR) (antibody, V domains shown) VH: QVQLQQPGAELVKPGASVKMSCKASGYTFTSYNMHWVKQTPGRGLEWIGAIYPGRGDTSYNQKFKGKATLTADKSSSTAYMQLSSLTSEDSAVYYCARSTYYGGDWYFNVWGAGTTVTVSA VL: QIVLSQSPAILSASPGEKVTMTCRASSSVSYIHWFQQKPGSSPKPWIYATSNLASGVPVRFSGSGSGTSYSLTISRVEAEDAATYYCQQWTSNPPTFGGGTKLEIK |  | 0.61 | 0.78 |
| C2B8 antibody mutant Rmut1 (H55NE) (antibody, V domains shown) VH: QVQLQQPGAELVKPGASVKMSCKASGYTFTSYNMHWVKQTPGRGLEWIGAIYPGEGDTSYNQKFKGKATLTADKSSSTAYMQLSSLTSEDSAVYYCARSTYYGGDWYFNVWGAGTTVTVSA VL: QIVLSQSPAILSASPGEKVTMTCRASSSVSYIHWFQQKPGSSPKPWIYATSNLASGVPVRFSGSGSGTSYSLTISRVEAEDAATYYCQQWTSNPPTFGGGTKLEIK |  | 0.54 | 0.69 |
